In this experiment the target is Netrin-1-FlagM2 (recombinant netrin-1, Apotech). As to the kind of experiment: ELISA: DCC-5Fbn 100 ng coated, netrin-1 0 to 800 ng, IL3-R values subtracted.

Drawing on patent US20090226458A1, this text covers Kd for 1 substance.

As a reminder, the Kd is the concentration at which binding is half-saturated.

Regarding “DCC-5Fbn (recombinant soluble fifth fibronectin type III domain of DCC) (from UniProt P43146 846-942) (receptor)”, the equilibrium dissociation constant (Kd) is 5 nM.
